This note sets out measurements from patent publication US20260250320A1, “LIPIDATED PEPTIDE INHIBITORS OF INTERLEUKIN-23 RECEPTOR” (Janssen Pharmaceutica NV, priority 2023, published 2026).

The target in the experiment is interleukin-23 receptor (IL-23R) (UniProt Q5VWK5). Briefly: cell-based or functional assay.

On to “interleukin-23 (IL-23) (from UniProt Q9NPF7 20-189; P29460 23-328) (ligand)”, for which the EC90, IL23R reporter assay was 10 ng/mL.
